# B1: TMD peptide of HA2 (strain X:31) of influenza virus, unlabeled (peptide)
# peptide: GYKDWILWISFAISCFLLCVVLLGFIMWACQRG
# Molecular target: the molecule itself
# Assay: SDS-PAGE
protein,measurement,value
B1,binding result,binds

# From paper PMC2267159 (BMC Biology, 2008)
